± gives the uncertainty stated by the source.

We go through 141 substances from the supplement of paper PMC12042874.

A short description of this data set: amyloid nucleation score (Sup35N fusion, yeast selection) (log enrichment); library NNK2; higher = more nucleation; inactive = no reads after selection. A digest of the protocol: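 DiMSum was used to calculate nucleation scores as log enrichment of output over input reads, centred on the mode score of non-aggregating sequences. Sequences with fewer than 100 input reads were not scored. Input and output came from Illumina sequencing of plasmid inserts in psi-negative yeast expressing peptides of 20 random codons fused to Sup35N, induced 24 hours with 100 μM copper sulfate and then grown 7 days at 30°C on medium lacking adenine and uracil.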
For LIMLASSLWTRKGGDTST, the amyloid nucleation score amounted to 6.292 ± 0.053. Next, LIMYGTKLSRLVMLLYYWTW: 0.031 ± 0.34; LINPCVRLWLCNCIFTFESA: 7.872 ± 0.027; LINVMLS: “inactive”.

For LIRPSLPSS, the amyloid nucleation score was found to be 0.807 ± 0.28. Next, LIRVYRKVGLVTLLHGMNRM: 0.039 ± 0.32; LIVGAIASLHHTLQVNGSPN: 4.59 ± 0.11. The value for LIVWT was 0.593 ± 0.54; that for LIWVRGNEGRFGGRLVLVVE was “inactive”; that for LKCSFAVTDAWIGNRRAQRQ was 1 ± 0.2.

Substance LKITRRSALV yielded an amyloid nucleation score of 0.186 ± 0.76. Next, LKNLGYNMSPMYHWHCSSSK: -0.003 ± 1.1; LKPSSFVYIITDQFSNHIVM: 5.84 ± 0.065; LKQTGQLRVMSN: 0.039 ± 0.79. Next, LKRGYSFMRCLGVWRFQEPD: -0.158 ± 0.25.

Take LKRNMWFLYRGTFARSYYAN: the amyloid nucleation score is -1.03 ± 0.55. Next, LKSSWPFDVKKAYKCYVKFA: 0.006 ± 0.65. Next, LKTACVDALLH: 0.258 ± 0.26; LKWRVRWAIKED: 0.547 ± 0.21. Next, LLCSPEGVYGKCTGGFRQTL: 0.581 ± 0.39; LLDLALRLTMGLITKHEANK: 3.61 ± 0.064.

With LLDYLYDIGRHTKGK, the amyloid nucleation score is -0.337 ± 1.1. The substance LLEVGSKKCGHPLSTYSKAN came in with an amyloid nucleation score of 0.463 ± 0.48.

The substance LLEYNIFLRSIVFDGREEWA came in with an amyloid nucleation score of 3.18 ± 0.058. In the case of LLFCKPDAHFVLCSFYPLML, the amyloid nucleation score result is “inactive”.

Consider LLFINGHAMTGAVYTITKLT, for which the amyloid nucleation score is -0.302 ± 0.36. With LLFTLGNGGFSLRYKK, the amyloid nucleation score was -0.265 ± 0.23. Next, LLFVLAKGNKTCSTPCIEIH: -0.628 ± 0.27; LLGAGLSITMWDGPQL: 0.654 ± 0.23. Next, LLGARDFGWGLHGLLGYRLG: 0.123 ± 0.56. The value for LLGSLLIFPMES was -1.52 ± 0.78; that for LLICDSMHHTM was 0.275 ± 0.48.

With LLKTSASCIMHGEKQKWMLA, the amyloid nucleation score was found to be 0.671 ± 0.64. Next, LLLILTL: 0.21 ± 1; LLLSFTCLRHTGWFFIRRCC: -0.631 ± 0.41.

Substance LLLVPIPH returned an amyloid nucleation score of 1.07 ± 0.38.

Turning to LLNLTSLLRKCLFKNRRKFI, the amyloid nucleation score is -0.972 ± 0.36. The value for LLPMGYAYISYSLLGNYMSG was -1.37 ± 0.48; that for LLPSHISASNHIWWLKTS was 0.307 ± 0.31. The value for LLPWGVTMVERLFIPIRCSD was 0.308 ± 0.35; that for LLSGEDQLMKYLKSKNSCLW was -0.67 ± 0.79. As to LLSKGLA, the amyloid nucleation score is -0.682 ± 0.32.

In the case of LLSQKRGCHVSGHIGVEA, the amyloid nucleation score is -0.218 ± 0.31. The value for LLSTDESCSTLNIYCIYTPR was 8.139 ± 0.045; that for LLTAFTTYYLIYHSFSRYLA was -1.47 ± 1.1; that for LLTCEASRTPARSQLLASEG was 0.851 ± 0.4. The value for LLTNAVRGLG was 0.302 ± 0.56. The value for LLVKRCSAKPNLRRLLKLMC was -0.097 ± 0.76; that for LLVSSVSMTWHGKLSHTYFK was 4.62 ± 0.059. With LLVVCSNLQNKVCRRNPEVF, the amyloid nucleation score was -1.79 ± 0.49. The value for LLWCIERG was 0.946 ± 0.51; that for LLWLPR was 0.376 ± 0.31. Next, LLWWMCQYEIFWDKMLYLES: 0.074 ± 1; LLYCYSLFVVSFDYTFHQRF: 6.15 ± 0.062. The value for LMAKQFIPGTYTLRGSSFHG was -0.677 ± 0.3; that for LMGGYLEYGSFVTT was 0.453 ± 0.51; that for LMMKEPDPSVC was -0.101 ± 0.42. Take LMMTSVYLKLGWSFFIFRHR: the amyloid nucleation score was -0.238 ± 1.1. The value for LMSCRILRSAKRGHSNVKRF was 0.254 ± 0.46; that for LMTSDAGSLAIVVVNCNFGT was 7.942 ± 0.023.

LMVTKLSCSCFCLFSVPRSQ had an amyloid nucleation score of 0.783 ± 0.74. In the case of LMWADLLLKKLILFA, the amyloid nucleation score is -0.334 ± 0.64. Next, LNAYGGRCSL: 0.317 ± 0.5; LNGCSRILAFYMGCSCGGLM: -1.02 ± 0.76; LNGGKLWNHRDLWDRTGQVY: -0.266 ± 1.

Turning to LNGSADTLD, the amyloid nucleation score is -0.755 ± 0.41. The value for LNHPTGCEYRWEARPNLCEK was -0.553 ± 0.63; that for LNIIMGSSDFCPESFYKFW was 0.266 ± 1.

Turning to LNKNLLEKCLYRDLLLSVFW, the amyloid nucleation score is -2.32 ± 1.1. Next, LNLMVTW: -0.926 ± 0.78; LNSANSFWCVRRYCGTAQMQ: -1.29 ± 1.1. Regarding LNTNPARYLPGMFNPRSKYL, the amyloid nucleation score was -0.324 ± 1.1. Regarding LNTSSYFVIDDFWIIFRRCR, the amyloid nucleation score was -0.814 ± 0.55. Next, LNTVYCN: -1.09 ± 0.47; LNVGIFNLLTSSGFMGTIRR: 4.39 ± 0.045; LNVKFK: -0.966 ± 1.1.

For the substance LPCGVSLALHSWENYILNRP, the amyloid nucleation score is 0.55 ± 0.52.

As for LPEIHLVTLC, the amyloid nucleation score is -0.802 ± 0.49. The value for LPGSRHNSRMSLRTQVVKVL was “inactive”; that for LPLLCFTDV was “inactive”; that for LPLLSWDPRNTSP was -0.218 ± 0.53. For the substance LQTFMNVGVFSGDKEYPCVF, the amyloid nucleation score was determined as 0.662 ± 0.66. The substance LQVLARVDRLSHPGR displayed an amyloid nucleation score of 0.636 ± 0.81. In the case of LQYCHRGC, the amyloid nucleation score is -0.179 ± 0.44.

For LRFKNVWWPYGDYECATIIT, the amyloid nucleation score was -0.468 ± 0.41.

The substance LRFSWDKISFVVRWLVVGLT showed an amyloid nucleation score of 0.138 ± 0.19.

Take LRFYPW: the amyloid nucleation score was 1.14 ± 0.36. With LRGMTLFTPVTLTNSNCMVT, the amyloid nucleation score was 0.437 ± 0.18. With LRGYCLRWRHWTVSILEFGV, the amyloid nucleation score was -1.02 ± 0.76. The value for LRHDR was 0.43 ± 0.32; that for LRKHFWLGCEGAWLVFG was 4.81 ± 0.08; that for LRKWILLLRDYDSLYFCLVA was -0.996 ± 0.36. Next, LRLARKRVECFVLLADFNNR: 0.306 ± 0.53; LRQCKGLRVLLPTGWSYKCE: 1.67 ± 0.58; LRQGCFQTVKLDYRES: -0.032 ± 1.1. The value for LRRSGRSENSRRMTWVWW was 2.75 ± 0.17. Turning to LRSACCLIRSLNTAVCGWTK, the amyloid nucleation score worked out at 4.22 ± 0.048. The value for LRSFM was -0.591 ± 0.5; that for LRSKTDAPDGRFLAWSSMLC was 0.458 ± 0.25. As for LRTGHPSI, the amyloid nucleation score result was “inactive”. In turn, LRVMSVRYSICVKYNVEFRL yielded an amyloid nucleation score of 1.18 ± 0.21.

Turning to LRVVIHPVRNAGCLGKYGAN, the amyloid nucleation score was -0.509 ± 0.33.

Regarding LRVVSES, the amyloid nucleation score was -0.599 ± 0.35. Next, LRVYKTNTRQDLKLDTIMVG: -1.14 ± 0.34; LRYAYTFDVDLSTRQAAVSL: -0.573 ± 0.79. The value for LSDGN was -1.04 ± 0.76; that for LSEFYRLRYYTGCQ was 1.05 ± 0.31; that for LSFFGRDDLNRLHN was -1.41 ± 1.1.

LSFGIVKLVMRAFTKKVTKG had an amyloid nucleation score of 0.388 ± 0.47.

As to LSFRYVFIWIEVFPILGNMR, the amyloid nucleation score was -1.77 ± 0.34. The value for LSIFKGNTNLLLSYVPALNI was -1.29 ± 0.64; that for LSINLSDMNFVVHSCLGSLG was 5.45 ± 0.077.

In turn, LSINSFTKHQ registered an amyloid nucleation score of 0.148 ± 1.

Take LSKINVFWKSSTALQCLAPE: the amyloid nucleation score is -0.322 ± 0.55. Next, LSLFLLVICSSAFM: “inactive”. Substance LSLLEGKVWLRWY gave an amyloid nucleation score of 1.2 ± 0.61.

Regarding LSLRDVGGLLSNLSIMCGKG, the amyloid nucleation score is 0.144 ± 0.25. Next, LSMTKVLFCTFEITSLSLYQ: -0.245 ± 0.62. The value for LSNAFRLNYTLLYAFISYFH was -1.22 ± 0.76. For the substance LSNWHHFSQSRDFDKSLWVS, the amyloid nucleation score is -0.386 ± 0.42.

As for LSNWSPFYMLHQSISFCSRS, the amyloid nucleation score is 3.08 ± 0.051. For the substance LSPVSWYLRITYNAYSMVGQ, the amyloid nucleation score was found to be 1.91 ± 0.11. The value for LSRAN was “inactive”; that for LSSLYFSLFNYYLFNRFIFN was “inactive”. Next, LSSSMSSSRASQDFGFLGVH: 0.877 ± 0.48; LSVCLAKPTCDVSF: 0.201 ± 0.33. Next, LSVSHMCEADLQYRTLFLSK: -0.606 ± 0.37; LSVTGDTWRMVSRYSHECKD: 0.859 ± 0.52. LSVTPIFGRNTDTLESGL: the amyloid nucleation score is -0.093 ± 0.55.

LSYPTVYLATLVYFLQMWAV: the amyloid nucleation score is -0.285 ± 0.37. Next, LSYRHNGPHPGGYNCTGSRV: “inactive”; LSYTSDSRPAGF: -0.347 ± 1.1; LSYVFIVECPSSAGMLPRPF: 4.01 ± 0.13. In the case of LTDNS, the amyloid nucleation score turned out to be 0.147 ± 0.61. The value for LTFPA was -0.206 ± 1.1; that for LTHQRRRLMMCI was 0.283 ± 0.32; that for LTIPDFRSGRRRVAQRDLVV was -0.157 ± 0.37. Consider LTIVLQLGLL, for which the amyloid nucleation score is 8.52 ± 0.066. LTNEI: the amyloid nucleation score was -0.515 ± 1. Next, LTNNHYIKPFRSRIRVMVMY: 4.79 ± 0.069; LTRYLLWLLVESGFLGRSGV: -0.21 ± 0.79.
